Values belong to the molecule of their own block, whether it stands above or below them.
Assays:
[1] = target: CFP-tagged and YFP-tagged Fas expressed in Hepa 1-6 cells; experiment: cell-based or functional assay
[2] = target: endogenous Fas of Jurkat cells (human) (UniProt P25445); experiment: cell-based or functional assay
[3] = target: T1, Fas trimerization in Jurkat cells (Homo sapiens, UniProt P25445); experiment: Chemical crosslinking (DTSSP) and Western blot of Fas trimerization in Jurkat cells; assay type: cell-based; details: Fas-Ligand and DTSSP
T1 construct: endogenous in cells; host or cells: Jurkat
T1 sequence (P25445 26-335): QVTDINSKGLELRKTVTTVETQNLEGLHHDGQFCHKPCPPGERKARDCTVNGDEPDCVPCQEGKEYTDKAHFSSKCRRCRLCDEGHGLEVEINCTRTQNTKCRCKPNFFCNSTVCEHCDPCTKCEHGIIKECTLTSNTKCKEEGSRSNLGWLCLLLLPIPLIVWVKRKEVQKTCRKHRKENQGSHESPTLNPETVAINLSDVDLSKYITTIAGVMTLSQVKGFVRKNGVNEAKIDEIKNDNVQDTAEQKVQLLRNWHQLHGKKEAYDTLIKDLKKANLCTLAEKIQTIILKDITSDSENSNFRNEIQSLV
Experimental: FIG. 3a presents data collected from Jurkat cells (1×10^6) treated with 2 μg/ml of Fas Ligand with or without AlphaMet for 30 minutes on ice. Cells were washed with PBS twice and then incubated with 2 mM of DTSSP in PBS for 30 minutes. The crosslinking process was stopped by 20 mM of Tris (pH 7.5) for another 30 minutes. Cells were spun down and washed with PBS twice and lyzed in RIPA buffer. Cell lysates were subjected to SDS-PAGE under non-reducing or reducing conditions (FIG. 3b) and Western blot analysis using the mouse monoclonal antibody against human Fas. FIG. 3c depicts the quantification of the data in FIG. 3a by densitometry. The data are the mean and SE from three different independent crosslinking and Western blot experiments. […] Frame A: Acceptor CFP-Fas image; Frame B: Acceptor pre-bleach CFP-Fas image; Frame C: Acceptor post-bleach image. Frame D: Donor YFP-Fas image; Frame E: Donor pre-bleach image; Frame F: […]. The CFP-Fas strength in the selected region obtained a gain of 19.3% efficiency in the presence of FasL for 15 minutes. No FRET was observed without FasL. […] FIG. 3e depicts the results of experiments in which CFP-tagged Fas or CFP control vector were transiently expressed in Hepa 1-6 Cells (3×10^5). […] Cells were fixed and analyzed by fluorescence microscopy. […]

Jurkat cells = experiment: Fas-ligand induced apoptosis in Jurkat cells (Trypan Blue, flow cytometry); assay type: cell-based, human
Experimental: For FIG. 4a, Jurkat cells (1.5×10^5) were overnight treated in triplicate with 5 ng/ml of crosslinked human Fas ligand with or without 5 μg/ml of recombinant AlphaMet or 1 μg/ml of the indicated polypeptides. Percent apoptosis was determined by Trypan Blue staining using a hemocytometer. The data are representative and were repeated at least four times. […] The 17 kDa fragment of cleaved Caspase 3 is visualized by this antibody. The blot was reprobed for β-actin as a loading control. For FIG. 4c, serum deprived Hepa 1-6 cells (3×10^5) were overnight treated with 1 μg/ml of crosslinked mouse Fas ligand with or without AlphaMet or the indicated polypeptide. Media were collected and centrifuged to pellet the dead cells. […] The data in FIG. 4c represents three independent experiments.
Apoptosis assay. Pre-washed Jurkat cells in RPMI 1640 medium containing 1% FBS were inoculated in 96-wells at a density of 10^5 cells per well. Apoptosis was induced by cross-linked human Fas-ligand (R&D Systems) at a concentration of 0.5 ng/ml or Anti-Fas (human, activating) clone CH11 (Upstate biotechnology) at a concentration of 500 ng /ml. Hepa 1-6 cells were overnight starved before induction of apoptosis. The apoptosis in Hepa 1-6 was induced by anti-mouse Fas antibody Jo2 (200 ng/ml) or human recombinant Fas-ligand. The extent of cell viability and apoptosis was determined by several methods such as Trypan Blue stain, flow cytometry, LDH assay, and Hoechst staining.

[4] = tested on: Fas capping in Hepa 1-6 cells; experiment: Fas capping of fluorescent protein tagged Fas in Hepa 1-6 cells; assay type: cell-based; details: Hepa 1-6, 30 minutes treatment
Experimental: FIG. 3a presents data collected from Jurkat cells (1×10^6) treated with 2 μg/ml of Fas Ligand with or without AlphaMet for 30 minutes on ice. Cells were washed with PBS twice and then incubated with 2 mM of DTSSP in PBS for 30 minutes. The crosslinking process was stopped by 20 mM of Tris (pH 7.5) for another 30 minutes. Cells were spun down and washed with PBS twice and lyzed in RIPA buffer. Cell lysates were subjected to SDS-PAGE under non-reducing or reducing conditions (FIG. 3b) and Western blot analysis using the mouse monoclonal antibody against human Fas. FIG. 3c depicts the quantification of the data in FIG. 3a by densitometry. The data are the mean and SE from three different independent crosslinking and Western blot experiments. […] Frame A: Acceptor CFP-Fas image; Frame B: Acceptor pre-bleach CFP-Fas image; Frame C: Acceptor post-bleach image. Frame D: Donor YFP-Fas image; Frame E: Donor pre-bleach image; Frame F: […]. The CFP-Fas strength in the selected region obtained a gain of 19.3% efficiency in the presence of FasL for 15 minutes. No FRET was observed without FasL. […] FIG. 3e depicts the results of experiments in which CFP-tagged Fas or CFP control vector were transiently expressed in Hepa 1-6 Cells (3×10^5). Cells were treated with 1 μg/ml of Fas ligand or 100 ng/ml of Jo2 with or without 5 μg/ml of AlphaMet or 1 μg/ml of YLGA 12 mer for 30 minutes on ice. Cells were fixed and analyzed by fluorescence microscopy. Frame A: AlphaMet treatment only, no FasL; Frame B: Fas ligand treatment only; Frame C: Fas ligand and AlphaMet treatment; Frame D: Fas ligand and 12 mer YLGA; Frame E: Jo2 treatment only and Frame F: Jo2 and AlphaMet treatment.
Fluorescence protein tagged Fas molecules and Hepa 1-6 cells were used for these experiments. These cells were transiently co-transfected with CFP and YFP chimeric Fas expression vectors using the lipofectamine 2000 method (Invitrogen). After 24 hours of transfection, about 50% of the cells were fluorescing. The cells were treated by Fas-ligand in the presence or absence of AlphaMet for 30 minutes. Treated cells were then fixed with cold methanol and subjected to FRET analysis. Cells were considered positive if FRET efficiency was over 10%. FRET phenomenon was observed only in cells that were treated with Fas-ligand. […] In these experiments the percent of Fas capping was also determined.

[5] = tested on: Fas self-assembly in Hepa 1-6 cells; experiment: FRET assay of CFP-Fas/YFP-Fas in transfected Hepa 1-6 cells; assay type: cell-based; details: Hepa 1-6, FasL for 15 minutes
Experimental: FIG. 3a presents data collected from Jurkat cells (1×10^6) treated with 2 μg/ml of Fas Ligand with or without AlphaMet for 30 minutes on ice. Cells were washed with PBS twice and then incubated with 2 mM of DTSSP in PBS for 30 minutes. The crosslinking process was stopped by 20 mM of Tris (pH 7.5) for another 30 minutes. Cells were spun down and washed with PBS twice and lyzed in RIPA buffer. Cell lysates were subjected to SDS-PAGE under non-reducing or reducing conditions (FIG. 3b) and Western blot analysis using the mouse monoclonal antibody against human Fas. FIG. 3c depicts the quantification of the data in FIG. 3a by densitometry. The data are the mean and SE from three different independent crosslinking and Western blot experiments. […] Frame A: Acceptor CFP-Fas image; Frame B: Acceptor pre-bleach CFP-Fas image; Frame C: Acceptor post-bleach image. Frame D: Donor YFP-Fas image; Frame E: Donor pre-bleach image; Frame F: Donor pre-bleach image. […] Cells were fixed and analyzed by fluorescence microscopy. […]
FRET assay. […] Fret efficiency (E) was calculated as FRETeff=(Dpost−Dpre)/Dpost (Dpost and Dpre are the mean emission intensity […] YFP bleaching).
Fluorescence protein tagged Fas molecules and Hepa 1-6 cells were used for these experiments. […] In these experiments the percent of Fas capping was also determined.

- FRET efficiency between CFP-Fas and YFP-Fas [1]: 19.3%
- percent of fluorescent cells showing Fas capping [1]: 20%
- Fas trimerization (DTSSP crosslinking, Western blot, densitometry) [2]: 3 fold
Molecule: soluble Fas Ligand (recombinant FasL)

- intensity of trimeric Fas complex versus ligand unstimulated crosslinked cells [3]: about 3 fold
B1: FasL: recombinant soluble Fas Ligand, cognate ligand of Fas, used to induce apoptosis (protein)
chain: QLFHLQKELAELRESTSQMHTASSLEKQIGHPSPPPEKKELRKVAHLTGKSNSRSMPLEWEDTYGIVLLSGVKYKKGGLVINETGLYFVYSKVYFRGQSCNNLPLSHKVYMRNSKYPQDLVMMEGKMMSYCTTGQMWARSSYLGAVFNLTSADHLYVNVSELSLVNFEESQTFFGLYKL
- death rate (Jurkat cells; Fas-ligand overnight, AlphaMet 5 μg/ml, Trypan Blue): about 50%
- sub-G1 (apoptotic) population (Jurkat cells; Propidium Iodide flow cytometry, Fas-ligand): 48%
- fluorescent cells showing Fas capping [4]: 20%
- FRET efficiency gain [5]: 19.3%

Source: patent US20070184522A1, “Cell death modulation via antagonists of Fasl and Fas activation” (University of Pittsburgh of the Commonwealth System of …, priority 2004, published 2007)
